# Target: CD23 coated on ELISA plates (UniProt P06734)
# Test: ELISA, CD23 coated, pre-formed mAb:IgE complex added, anti-human IgG Fc-HRP detection
substance,measurement,value
pre-formed UB-221:IgE complex (from UniProt P01854 1-428),EC50,0.0416 µg/mL

# — patent US20230122862A1
